The record followed here is patent US20110178020A1 (UNIVERSITY OF LOUISVILLE RESEARCH FOUNDATION, published 2011).

This test has as its target T1, GST-VAMP-2 (VAMP-2 generated as a GST fusion protein, bound to glutathione beads) (UniProt P63027 1-94).
T1 construct: not shown: glutathione S-transferase (GST) tag
Put plainly: GST pull down, immunoblot for the HA tag.

T1 sequence (P63027 1-94): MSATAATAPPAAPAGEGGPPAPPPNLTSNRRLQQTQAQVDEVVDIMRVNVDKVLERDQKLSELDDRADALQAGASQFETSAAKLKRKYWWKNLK

B1: TAT-HA-SNAP-23 fusion polypeptide (TAT cell-penetrating polypeptide, hemagglutinin affinity tag, and 78 amino acids from the amino-terminus of human SNAP-23) (other)
chain: MRGSHHHHHHGMASMTGGQQMGRDLYDDDDKDRWGSKLGYGRKKRRQRRRGGSTMSGYPYDVPDYAGSMDNLSSEEIQQRAHQITDESLESTRRILGLAIESQDAGIKTITMLDEQKEQLNRIEEGLDQINKDMRETEKTLTELNK
notes: also called TAT-SNAP-23
Consider B1, for which the binding result is reported as “no binding”.
